Test [1] has as its target RhoB GTPase, recombinant (full length RhoB with the C-terminal CKVL motif deleted, six-HIS tag, expressed in E. coli) (UniProt P62745). Kind of test: BLI (BLItz), RhoB immobilised on Ni-NTA biosensor, B30.2 domain in solution, 1:1 fit, no pAg; kd(1/Ms) [sic].
For test [2] the target is unchanged. As to the kind of experiment: BLI (BLItz), RhoB immobilised on Ni-NTA biosensor, B30.2 domain in solution, 1:1 fit, no pAg.
For test [3] the target is unchanged. As to the kind of experiment: BLI (BLItz), RhoB immobilised on Ni-NTA biosensor, BFI in solution, 1:1 fit, no pAg.
Test [4] shares this target. As to the kind of experiment: BLI (BLItz), RhoB immobilised on Ni-NTA biosensor, BFI in solution with the phosphoantigen cHDMAPP at 1:1; kd(1/Ms) [sic].
Test [5] has the same target. As to the kind of experiment: BLI (BLItz), RhoB immobilised on Ni-NTA biosensor, BFI in solution with the phosphoantigen cHDMAPP at 1:1.
The target is the same in test [6]. As to the kind of experiment: BLI (BLItz), RhoB immobilised on Ni-NTA biosensor, BFI in solution, 1:1 fit, no pAg; kd(1/Ms) [sic].

For orientation: kon means a measure of how fast the partners come together. One may read the Kd as the constant that tells how readily two partners part at equilibrium. Usually koff stands for the first-order rate constant of dissociation. “BTN3A1 (CD277) B30.2 domain, recombinant (from UniProt O00481 328-513) (receptor)”: in test [1], the kon was 2020 M⁻¹ s⁻¹. Besides, in test [2], the Kd worked out at 102 µM and the koff turned out to be 0.206 s⁻¹.

Turning to “BTN3A1 (CD277) full-length intracellular domain, recombinant (from UniProt O00481 272-513) (receptor)”, the values for the dissociation constant Kd in test [3] and in test [5] were 19.7 µM and 666 µM, respectively. For the same substance, the koff in test [3] is 0.0435 s⁻¹; in test [5], 0.115 s⁻¹. The kon worked out at 172 M⁻¹ s⁻¹ in test [4] and 2200 M⁻¹ s⁻¹ in test [6].
